Reference: patent publication US10227575B2, “Multi-domain enzymes having cutinase activity, compositions comprising same and uses thereof” (OZYMES, priority 2015, dated 2019)
Read-outs that look alike come from different tables or passages of the source. Marks after values point to notes of the source that are not given here.

Key:
[1] = Activity of crude culture supernatants from bioreactor; type: biochemical; conditions: pNP-dodecanoate
[2] = Specific activity of purified enzymes (standard esterase assay); type: biochemical
Procedure: In summary, using different techniques for enzyme purification, pure enzyme preparations were obtained and tested for their activity towards a standard esterase substrate, pNP-palmitate. Enzymatic activities of the purified variants are summarized below:
(§1) Esterase activity was determined by monitoring the formation of para-nitrophenol (pNP) at 410 nm from various pNP-esters using a Beckman UV spectrophotometer (model DU 640). Substrates were completely dissolved in 2-propanol (8 mM) and were then added to 50 mM Tris/HCl buffer pH 8.0 to give a final substrate concentration of 0.8 mM. The reaction (1 mL) was started by adding an appropriate amount of enzyme. One enzyme unit (U) was defined as the amount of enzyme that produced 1 μmol of product (pNP) per min; specific activity was expressed as U/mg protein. A molar extinction coefficient of 15 mM^−1 cm^−1 was used for the calculation.

[3] = Enzyme substrate profiles, esterase assays; type: biochemical; conditions: highest activity towards a specific substrate set to 100%
Procedure: as §1

Temperature optimum = type: biochemical; conditions: for Relative activity at temperature: highest activity set to 100%
Procedure: For estimation of the temperature optimum, buffer containing pNP-palmitate (see esterase assay in Example 20.1) was pre-incubated to reach the desired temperature, enzyme was then added, and the formation of pNP was assayed. For this experiment, Tris/HCl buffer was replaced with sodium phosphate buffer (50 mM, pH 8.0) to avoid a pH shift at the different temperatures.

[4] = Enzymatic activity in the presence of organic solvents; type: biochemical; conditions: buffer only = 100%
Procedure: Enzyme activity in various organic solvents was studied over a concentration range of 1-30% at room temperature. pNP-palmitate was completely dissolved in 2-propanol (8 mM) and then added to 50 mM Tris/HCl buffer pH 8.0 containing up to 30% organic solvent to give a final substrate concentration of 0.8 mM. The reaction was started by addition of enzyme and the formation of pNP was assayed as described above in Example 20.1.

pH dependence of enzymes = type: biochemical; conditions: for Relative activity (%): highest activity = 100%
Procedure: The influence of different pH values (from 5.5 to 11) on the activities of the purified enzymes was examined in three buffer systems (sodium acetate, sodium phosphate, and Tris-HCl) at room temperature using pNP-palmitate (see esterase assay in Example 20.1) as a substrate at a final substrate concentration of 0.8 mM.

[5] = Stability in the presence of hydrogen peroxide; type: physicochemical
Procedure: as §1
Purified cutinases were incubated at room temperature in the presence of 0, 30, 100, 300, 1500, and 3000 ppm of hydrogen peroxide. Residual enzyme activity was assayed (see Example 20.1) after 1, 2, 3, and 7 days of incubation.

[6] = type: biochemical, Petromyces albertensis; conditions: for Residual ochratoxin A (%): 5 ppm Ochratoxin A, 37° C., relative to incubation without enzyme
Procedure: The enzymes purified in Example 18 were tested for their ability to degrade the mycotoxin Ochratoxin A. In general, the mycotoxin was incubated with different concentrations of the enzyme, and the remaining mycotoxin concentration, as well the respective degradation products, were monitored by LC-MS over time (where possible/applicable).
Reactions were performed in 1 mL volumes in glass HPLC vials comprising the mycotoxin to be analyzed and the enzyme to be tested. For Ochratoxin A (Petromyces albertensis, 01877 Sigma), 50 μL of a 100 ppm stock solution in methanol (final concentration of 5 ppm) was added to 910 μL of distilled water and 40 μL of the enzyme to be tested. In control reactions, the volume of enzyme was substituted with distilled water. The reactions were incubated in an Eppendorf thermomixer at 37° C. with shaking at 750 rpm. 100 μL samples were withdrawn at 1, 4 and 24 h for chromatographic analysis.
Mycotoxin analysis was carried out using a Shimadzu LCMS-2020 equipped with a UV/vis detector. Chromatographic separation of 10 μL injected sample was carried out at 30° C. on a Kinetex 2.6 μm XB-C18 column 100 Å (50×2.1 mm) using a binary gradient. For Ochratoxin A, eluent A consisted of water and eluent B consisted of acetonitrile and the UV detection wavelength was 360 nm.
The five enzymes tested were screened for their ability to degrade 5 ppm (5,000 ppb) Ochratoxin A at 37° C.

B1: KrCUT: mature Kineococcus radiotolerans cutinase, amino acids 34-294 of SEQ ID NO: 1; SEQ ID NO: 6 (protein)
chain: ATCSDVDVVFARGTGETPGLGVVGGPFVRSLTGELSDRTVTSHAVDYAASSSQASAGPGATAMSAHVREVAAACPSTRFVLGGYSQGATVTDIALGIRTGTTTGTPVPAELAGRVAAVVVFGNPLGLSGRTIATASSTYGPKSKDYCNSSDSVCGSAPKTGTGGHLSYASNGSTTDGARFAAGLVRAAGTPTTPTPTPTPTPVPTTCVRDSTRDHVAADRAVSLYGRAYARGSRDSLGATSSYNVVSLQQVEGGWRLVTAC
modifications: Kineococcus radiotolerans; (1)..(261) KrCUT (lacking residues 1-33 of ssKrCUT)
With B1 the “activity of crude culture supernatant” value [1] was 1.6 U/mL, the “Enzymatic activity of the purified variant” value ([2]; pNP-palmitate) was 197 ± 3 U/mg and the “Spec. Act. (U/mg)” value ([2]; towards pNP-palmitate (standard assay)) was 197 ± 3 U/mg. For the same molecule, the “Relative activity, pNP-acetate (C2)” value [3] was 2%, the “Relative activity, pNP-butyrate (C4)” value [3] was 26 ± 2% and the “Relative activity, pNP-caprylate (C8)” value [3] was 25 ± 3%. The “Relative activity, pNP-decanoate (C10)” value [3] was 25 ± 3%, the “Relative activity, pNP-myristate (C14)” value [3] was 100* % and the “Relative activity, pNP-palmitate (C16)” value [3] was 98 ± 6%. For the same molecule, the “Temp. opt. (° C.)” value (Temperature optimum) was 45 °C, the “Relative activity at temperature” value (Temperature optimum; 20 ° C.) was 83 ± 5% and the “Relative activity at temperature” value (Temperature optimum; 25 ° C.) was 84 ± 4%. For the same molecule, the “Relative activity at temperature” value (Temperature optimum; 30 ° C.) was 83 ± 4%, the “Relative activity at temperature” value (Temperature optimum; 35 ° C.) was 84 ± 4% and the “Relative activity at temperature” value (Temperature optimum; 40 ° C.) was 89 ± 6%. For the same molecule, the “Relative activity at temperature” value (Temperature optimum; 45 ° C.) was 100* %, the “Relative activity at temperature” value (Temperature optimum; 50 ° C.) was 90 ± 4% and the “Relative activity at temperature” value (Temperature optimum; 55 ° C.) was 38 ± 3%. The “Relative activity at temperature” value (Temperature optimum; 60 ° C.) was 15 ± 5%, the “Relative enzymatic activity (%)” value ([4]; 2-Propanol 5% (v/v)) was 55 ± 11% and the “Relative enzymatic activity (%)” value ([4]; 2-Propanol 10% (v/v)) was 8%. The “Relative enzymatic activity (%)” value ([4]; Acetone 1% (v/v)) was 71 ± 2%, the “Relative enzymatic activity (%)” value ([4]; Acetone 5% (v/v)) was 47 ± 7% and the “Relative enzymatic activity (%)” value ([4]; Dimethyl sulfoxide (DMSO) 10% (v/v)) was 106 ± 4%. The “Relative enzymatic activity (%)” value ([4]; Dimethyl sulfoxide (DMSO) 20% (v/v)) was 14 ± 2%, the “Relative enzymatic activity (%)” value ([4]; Dimethyl sulfoxide (DMSO) 30% (v/v)) was 2% and the “Relative enzymatic activity (%)” value ([4]; Dimethylformamide (DMF) 5% (v/v)) was 55 ± 11%. For the same molecule, the “Relative enzymatic activity (%)” value ([4]; Methanol 10% (v/v)) was 91 ± 12%, the “Relative enzymatic activity (%)” value ([4]; Methanol 20% (v/v)) was 8% and the pH opt. (pH dependence of enzymes) was 8.5. The “Relative activity (%)” value (pH dependence of enzymes; pH 6.5, sodium phosphate buffer) was 22 ± 1%, the “Relative activity (%)” value (pH dependence of enzymes; pH 7.0, sodium phosphate buffer) was 53 ± 2% and the “Relative activity (%)” value (pH dependence of enzymes; pH 7.5, sodium phosphate buffer) was 72 ± 4%. The “Relative activity (%)” value (pH dependence of enzymes; pH 8.0, Tris/HCl) was 87 ± 6%, the “Relative activity (%)” value (pH dependence of enzymes; pH 8.5, Tris/HCl) was 100* % and the “Relative activity (%)” value (pH dependence of enzymes; pH 9.0, Tris/HCl) was 96 ± 4%. The “Relative activity (%)” value (pH dependence of enzymes; pH 9.5, Tris/HCl) was 76 ± 7%, the “Relative activity (%)” value (pH dependence of enzymes; pH 10, Tris/HCl) was 37 ± 5% and the “Relative activity (%) after exposure to hydrogen peroxide” value (from here on “Relative activity (%) after exposure”) ([5]; H2O2 30 ppm, Day 0) was 100 ± 9%. For the same molecule, the “Relative activity (%) after exposure” value ([5]; H2O2 30 ppm, Day 1) was 90 ± 6%, the “Relative activity (%) after exposure” value ([5]; H2O2 30 ppm, Day 2) was 75 ± 3% and the “Relative activity (%) after exposure” value ([5]; H2O2 30 ppm, Day 3) was 75 ± 8%. For the same molecule, the “Relative activity (%) after exposure” value ([5]; H2O2 30 ppm, Day 7) was 76 ± 2%, the “Relative activity (%) after exposure” value ([5]; H2O2 100 ppm, Day 0) was 104 ± 6% and the “Relative activity (%) after exposure” value ([5]; H2O2 100 ppm, Day 1) was 91 ± 6%. The “Relative activity (%) after exposure” value ([5]; H2O2 100 ppm, Day 2) was 88 ± 6%, the “Relative activity (%) after exposure” value ([5]; H2O2 100 ppm, Day 3) was 76 ± 2% and the “Relative activity (%) after exposure” value ([5]; H2O2 100 ppm, Day 7) was 66 ± 2%. For the same molecule, the “Relative activity (%) after exposure” value ([5]; H2O2 300 ppm, Day 0) was 102 ± 4%, the “Relative activity (%) after exposure” value ([5]; H2O2 300 ppm, Day 1) was 87 ± 2% and the “Relative activity (%) after exposure” value ([5]; H2O2 300 ppm, Day 2) was 74 ± 1%. The “Relative activity (%) after exposure” value ([5]; H2O2 300 ppm, Day 3) was 63 ± 2%, the “Relative activity (%) after exposure” value ([5]; H2O2 300 ppm, Day 7) was 49 ± 4% and the “Relative activity (%) after exposure” value ([5]; H2O2 1,500 ppm, Day 0) was 102 ± 10%. The “Relative activity (%) after exposure” value ([5]; H2O2 1,500 ppm, Day 1) was 80 ± 4%, the “Relative activity (%) after exposure” value ([5]; H2O2 1,500 ppm, Day 2) was 67 ± 4% and the “Relative activity (%) after exposure” value ([5]; H2O2 1,500 ppm, Day 3) was 44 ± 2%. The “Relative activity (%) after exposure” value ([5]; H2O2 1,500 ppm, Day 7) was 11 ± 1%, the “Relative activity (%) after exposure” value ([5]; H2O2 3,000 ppm, Day 0) was 98 ± 9% and the “Relative activity (%) after exposure” value ([5]; H2O2 3,000 ppm, Day 1) was 60 ± 2%. The “Relative activity (%) after exposure” value ([5]; H2O2 3,000 ppm, Day 2) was 33 ± 1%, the “Relative activity (%) after exposure” value ([5]; H2O2 3,000 ppm, Day 3) was 20 ± 4% and the “Relative activity (%) after exposure” value ([5]; H2O2 3,000 ppm, Day 7) was “no activity was detected”. For the same molecule, the “Residual ochratoxin A (%)” value ([6]; 1 h) was 63%, the “Residual ochratoxin A (%)” value ([6]; 4 h) was 17% and the “Residual ochratoxin A (%)” value ([6]; 24 h) was 7%. For the same molecule, the “Ochratoxin A Degradation per U and h” value ([6]; per 1 U of enzyme (pNP standard test) and hour at 37° C.) was 0.02 µmol.
